# Reference: patent publication US20110274653A1, “DENDRITIC CELL IMMUNORECEPTORS (DCIR)-MEDIATED CROSSPRIMING OF HUMAN CD8+ T CELLS” (priority 2010, published 2011)
# B1: CD40L: CD40 ligand (R&D; 100 ng/ml) used as DC activator (protein, UniProt P29965 113-261, looked up)
# CD40 ligand, soluble form: MQKGDQNPQIAAHVISEASSKTTSVLQWAEKGYYTMSNNLVTLENGKQLTVKRQGLYYIYAQVTFCSNREASSQAPFIASLCLKSPGRFERILLRAANTHSSAKPCGQQSIHLGGVFELQPGASVFVNVTDPSQVSHGTGFTSFGLLKL
# How the values were obtained:
# blood HLA-A201^+ mDCs = format: cell-based, human; conditions: mDCs targeted with anti-DCIR.doc-coh.FluMP; Poly I:C 5 μg/ml, LPS 50 ng/ml, CL075 1 μg/ml
# Description: The specific-FluMP CD8^+ T cell response was measured after 8-10 days using HLA-A201-FluMP (58-66) tetramer.
# naïve CD8^+ T cells = assay: Quality of primed CD8+ T cells (effector molecules, cytokines) by DC activator; format: cell-based, human; conditions: IFN-α DCs targeted with anti-DCIR-MART-1, Luminex, FIG. 7F
# Description: Expansion of antigen-specific T cells in DC/T cell coculture: To assess the function of DCs in presenting FluMP- or MART-1-derived antigens, the present inventors used DCs from HLA-A201^+ donors. Cells were cultured with conjugates mAbs at the indicated concentration. Syngeneic purified CD8^+ T cells were cultured with the antigen-pulsed DCs at a DC/T ratio 1:20. CD40L (100 ng/ml; R&D) was added to the culture after 24 h to enhance crosspresentation by DCs^49. The cocultures were incubated at 37° C. for 8-10 days. IL-2 was added at 10 U/ml at day 3. Where indicated, DCs were activated with TLR agonists: LPS (10, 50 or 200 ng/ml; […]; Invivogen). The expansion of FluMP-, MART-1-, and HIV gag p24-specific CD8^+ T cells was evaluated using HLA-A201-FluMP (58-66) peptide ([…]) (SEQ ID NO: 1), HLA-A201-MART-1 (26-35) peptide ([…]) (SEQ ID NO: 2) and HLA-A201-p24 (151-155) peptide ([…]) (SEQ ID NO: 3)-tetramers, respectively (Beckman Coulter). For the assessment of crosspriming to multiple CD8^+ T cell-specific epitopes, CD34^+-derived DCs were incubated with anti-DCIR-p24 or IgG4-p24 fusion mAbs and cultured with CFSE-labeled CD8^+ T cells at a DC/T ratio 1:30. […] The secreted IFN-γ was measured in the culture supernatants by Luminex. […] Secretion of IFN-γ, TNF-α, IL-12p40, IL-4, IL-5 and IL-13 were measured in the supernatant after 40 h by Luminex. […]
# CD1a^+ LCs = assay: DCIR-signaling effect on DC phenotype and activation (surface markers, cytokines); conditions: stimulated 24 h
# Description: DCIR-signaling effect on DC-function: CD34^+-derived DCs were cultured in anti-DCIR (clone 24A5 or 9E8) or isotype control coated plates in the presence or absence of CD40L (R&D; 100 ng/ml) or LPS (Invivogen; 50 ng/ml). After 24 h, cells were harvested and stained for surface phenotype. The secreted cytokines were analyzed by a multiplex bead assay (Luminex).
Molecule,effect of TLR agonist on FluMP-specific CD8^+ T cell response (blood HLA-A201^+ mDCs),cytokines of DCIR-primed CD8^+ T cells according to the DC activator (naïve CD8^+ T cells),Mean fluorescence expression of CD40 (CD1a^+ LCs),Mean fluorescence expression of CD80 (CD1a^+ LCs),Mean fluorescence expression of CD86 (CD1a^+ LCs),Mean fluorescence expression of HLA-ABC (CD1a^+ LCs),Mean fluorescence expression of HLA-DR (CD1a^+ LCs),Mean fluorescence expression of ICOS-L (CD1a^+ LCs)
Poly I:C,enhanced the FluMP-specific responses at low concentration of the targeting complex,,,,,,,
"CCCc1nc2c(N)nc3ccccc3c2s1 [CL075, reference compound]",,"preferentially secrete IFN-γ and TNF-α with markedly reduced amounts of IL-4, IL-5 and IL-13",,,,,,
B1,,"high amounts of type 2 cytokines (IL-4, IL-5 and IL-13)",31.8,241.0,294.0,108.0,1018.000,69.800
